From patent US20220002395A1 (FAPON BIOTECH, published 2022)
Numbering of substitutions follows the chain as printed. Read-outs that look alike come from different tables or passages of the source.

B1: Mutation 1-46 (antibody, mouse IgG2b, kappa, V domains shown)
VH: EVQLQQSGPEVVKPGASVKISCKASGYTITDYYMNWVKQSHGKGLEWIGDINPINGGTAYNQKFRDKATLTVDKSSNTAYMELRSLTSEDSALYYCTRGAEDYWGQGTTLTVSS
VL: DVVLTQTPLSLSVTIGQPASISCKSSQSILYSQGKIYLNWFQQRPGQSPKRLMYQVSKLDPGIPDRFSGSGSETDFTLKISRVEAEDLGVYYCLQGTYTPQTFGGGTKLEIKR
notes: Mutation 1 as framework
B2: Mutation 1-22 (antibody, mouse IgG2b, kappa, V domains shown)
VH: B1 VH with N55Q, N61Q, R98K
VL: B1 VL with L30I, Q33N, G96A, T99S
notes: Mutation 1 as framework
B3: Mutation 1-20 (antibody, mouse IgG2b, kappa, V domains shown)
VH: B1 VH with Y27S, I51V, N55Q, R98K
VL: B1 VL with L30I, V56L, T99Y
notes: Mutation 1 as framework
B4: Mutation 1-16 (antibody, mouse IgG2b, kappa, V domains shown)
VH: B1 VH with N55Q
VL: B1 VL with I29L, T99S
notes: Mutation 1 as framework
B5: Mutation 1-32 (antibody, mouse IgG2b, kappa, V domains shown)
VH: B1 VH with I51V, N55Q, N61Q
VL: B1 VL with I29L, Q33N, V56L, G96A, T99Y
notes: Mutation 1 as framework
B6: Mutation 1-37 (antibody, mouse IgG2b, kappa, V domains shown)
VH: B1 VH with N61Q, R98K
VL: B1 VL with I29L, Q33N, V56I, D60E, G96A, T99Y
notes: Mutation 1 as framework
B7: Mutation 1-18 (antibody, mouse IgG2b, kappa, V domains shown)
VH: B1 VH with I29L, I51L, N55Q, R98K
VL: B1 VL with I29L, V56I
notes: Mutation 1 as framework
B8: Mutation 1-49 (antibody, mouse IgG2b, kappa, V domains shown)
VH: B1 VH with I29L, N55Q, R98K
VL: B1 VL with I29L, V56I, D60E, G96A
notes: Mutation 1 as framework
B9: Mutation 1-19 (antibody, mouse IgG2b, kappa, V domains shown)
VH: B1 VH with Y27T, I29L, N55Q
VL: B1 VL with L30I, V56I, D60E, G96A, T99S
notes: Mutation 1 as framework
B10: Mutation 1-21 (antibody, mouse IgG2b, kappa, V domains shown)
VH: B1 VH with Y27T, I29L, I51L, N55Q
VL: B1 VL with I29L, V56L, D60E
notes: Mutation 1 as framework
B11: Mutation 1-39 (antibody, mouse IgG2b, kappa, V domains shown)
VH: B1 VH with Y27T, I29L, I51L, N61Q, R98K
VL: B1 VL with I29L, Q33N, V56L, D60E, G96A
notes: Mutation 1 as framework
B12: Mutation 1-10 (antibody, mouse IgG2b, kappa, V domains shown)
VH: B1 VH
VL: B1 VL with I29L, Q33N, T99Y
notes: Mutation 1 as framework
B13: Mutation 1-47 (antibody, mouse IgG2b, kappa, V domains shown)
VH: B1 VH with Y27S, I51V, R98K
VL: B1 VL with D60E, G96A, T99S
notes: Mutation 1 as framework
B14: WT 1-2 (antibody, mouse IgG2b, kappa, V domains shown)
VH: B1 VH with Y27T, I29L, D31E, N55Q, A59P, D102E
VL: B1 VL with L38I, V56L, L59I, G96A, Q101N
notes: WT as framework
B15: WT 1-1 (antibody, mouse IgG2b, kappa, V domains shown)
VH: B1 VH with D31E, I51V, A59P, N61Q, R98K, D102E
VL: B1 VL with I29L, Q33N, L38I, V56I, L59I, D60E, G96A, T99S, Q101N
notes: WT as framework
B16: Mutation 3 (antibody, mouse IgG2b, kappa, V domains shown)
VH: B1 VH with Y27S, I29L, D31Q, I51L, A59V, N61Q, D102M
VL: B1 VL with L30I, Q33N, L38G, V56L, L59F, T99S, Q101M
notes: WT as framework
B17: WT 1-4 (antibody, mouse IgG2b, kappa, V domains shown)
VH: B1 VH with Y27T, I29L, D31E, I51V, A59P, R98K, D102E
VL: B1 VL with I29L, L30I, L38I, V56I, L59I, D60E, G96A, Q101N
notes: WT as framework
B18: WT 1-3 (antibody, mouse IgG2b, kappa, V domains shown)
VH: B1 VH with Y27S, D31E, I51L, A59P, N61Q, R98K, D102E
VL: B1 VL with L30I, Q33N, L38I, L59I, D60E, T99Y, Q101N
notes: WT as framework
B19: WT 1-5 (antibody, mouse IgG2b, kappa, V domains shown)
VH: B1 VH with D31E, I51L, N55Q, A59P, N61Q, D102E
VL: B1 VL with I29L, L38I, V56L, L59I, G96A, T99S, Q101N
notes: WT as framework

Key:
[1] = target: T1, Plasmodium falciparum histidine-rich protein II (HRP-II) (Plasmodium falciparum, UniProt P05227 22-332); assay: indirect ELISA, four antigen coating concentrations
T1 construct: Coating antigen of all ELISAs; also called HRP-II protein; MA-HRPII Ag protein
T1 sequence (looked up): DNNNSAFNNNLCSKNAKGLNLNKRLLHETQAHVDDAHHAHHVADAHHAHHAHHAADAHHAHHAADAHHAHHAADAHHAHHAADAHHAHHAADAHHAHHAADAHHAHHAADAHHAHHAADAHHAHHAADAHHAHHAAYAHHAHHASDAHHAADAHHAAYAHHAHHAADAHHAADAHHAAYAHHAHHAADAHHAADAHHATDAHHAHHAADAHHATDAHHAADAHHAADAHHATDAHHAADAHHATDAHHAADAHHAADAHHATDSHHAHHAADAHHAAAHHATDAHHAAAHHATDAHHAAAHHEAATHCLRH

[2] = target: T1, Plasmodium falciparum histidine-rich …; assay: as above; remark: listed apart in the source
[3] = target: T1, Plasmodium falciparum histidine-rich …; assay: indirect ELISA, coated MA-HRPII Ag 1 ug/ml, antibody 40 ng/ml
[4] = target: T1, Plasmodium falciparum histidine-rich …; assay: indirect ELISA, coated MA-HRPII Ag 1 ug/ml, antibody 200 ng/ml
[5] = target: T1, Plasmodium falciparum histidine-rich …; assay: indirect ELISA, coated MA-HRPII Ag 1 ug/ml, antibody 1000 ng/ml

Row | Binder | Kd [1] | further results
1 | B1 | 0.0721 nM | –
2 | B2 | 0.0814 nM | –
3 | B3 | 0.251 nM | –
4 | B4 | 0.502 nM | –
5 | B5 | 0.244 nM | –
6 | B6 | 0.365 nM | –
7 | B7 | 0.051 nM | –
8 | B8 | 0.0956 nM | –
9 | B9 | 0.0835 nM | –
10 | B10 | 0.0828 nM | –
11 | B11 | 0.233 nM | –
12 | B12 | 0.827 nM | –
13 | B13 | 0.0828 nM | –
14 | B14 | – | Kd [2]: 0.0856 nM
15 | B15 | – | Kd [2]: 0.521 nM
16 | B16 | – | OD value at 450 nm (ref 630 nm) [3]: 0.032 OD; OD value at 450 nm (ref 630 nm) [4]: 0.635 OD; OD value at 450 nm (ref 630 nm) [5]: 0.814 OD
17 | B17 | – | Kd [2]: 0.582 nM
18 | B18 | – | Kd [2]: 0.0923 nM
19 | B19 | – | Kd [2]: 0.311 nM
